# Assay results: US20030009022A1 (published 2003)
# Ends that are not written are not given here. * marks the point of attachment. For = O=C*
# T1: human formyl peptide receptor FPR1 (human, UniProt P21462 1-350)
# T1 sequence (looked up): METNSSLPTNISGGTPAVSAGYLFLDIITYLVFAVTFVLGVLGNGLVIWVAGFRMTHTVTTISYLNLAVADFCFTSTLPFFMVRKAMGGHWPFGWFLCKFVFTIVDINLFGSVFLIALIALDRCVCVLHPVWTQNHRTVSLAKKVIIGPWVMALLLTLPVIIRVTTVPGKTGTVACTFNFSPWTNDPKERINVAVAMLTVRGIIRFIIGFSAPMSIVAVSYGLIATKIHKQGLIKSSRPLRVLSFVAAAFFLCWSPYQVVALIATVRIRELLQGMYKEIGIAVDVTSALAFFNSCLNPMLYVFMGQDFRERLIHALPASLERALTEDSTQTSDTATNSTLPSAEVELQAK
# T2: human formyl peptide receptor like-1 (FPRL-1) receptor (human, UniProt P25090 1-351)
# T2 sequence (looked up): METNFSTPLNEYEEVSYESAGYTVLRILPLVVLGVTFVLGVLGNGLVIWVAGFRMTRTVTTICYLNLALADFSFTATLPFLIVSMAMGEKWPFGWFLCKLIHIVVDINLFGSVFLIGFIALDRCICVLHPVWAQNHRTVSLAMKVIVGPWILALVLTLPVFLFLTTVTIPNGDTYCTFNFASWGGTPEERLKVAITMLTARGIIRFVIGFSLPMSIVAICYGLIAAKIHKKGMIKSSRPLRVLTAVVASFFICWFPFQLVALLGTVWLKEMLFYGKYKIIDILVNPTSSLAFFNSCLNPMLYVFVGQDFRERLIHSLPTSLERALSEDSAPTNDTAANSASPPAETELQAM
# Legend:
# Assay in all cases: cell-based or functional assay
# [1] = molecular target: T1, human formyl peptide receptor FPR1
# [2] = molecular target: T2, human formyl peptide receptor like-1 …
# [3] = molecular target: T1, human formyl peptide receptor FPR1; remark: listed apart in the source
# [4] = molecular target: T2, human formyl peptide receptor like-1 …; remark: listed apart in the source
"EC50(nM), transient Ca2+ flux in HEK293/Gα16 cells expressing FPR1 [1]","EC50(nM), transient Ca2+ flux in HEK293/Gα16 cells expressing FPRL-1 [2]",Binder,also measured
> 10000 nM,< 2 nM,LESIFRSLLFRVM [peptide MMK-1],
690 nM,87 nM,SMCPTASAWVWLM [peptide AF-2],
< 0.3 nM,40 nM,"For-Met-Leu-Phe [fMLP, formyl-MLF]","EC50, calcium mobilization in human neutrophils [3]: < 0.2 nM; EC50, transient calcium mobilization in HEK293/Gα16 cells expressing FPRL-1 [4]: 400 nM"
< 0.3 nM,80 nM,"MMWLL [peptide MMWLL, Met-Met-Trp-Leu-Leu]",
10 nM,2 nM,"For-SLLWLTCRPWEAM [f-A5, N-terminally formylated derivative of peptide A5]","EC50, calcium mobilization in HEK293/Gα16 cells expressing FPR1 [3]: 0.1 nM; EC50 against that of A5, calcium mobilization in indo-1 loaded human neutrophils [4]: 10 fold lower EC50 than A5"
> 10000 nM,2400 nM,PPFFFRPVGMF [peptide DM-1],
> 10000 nM,35 nM,"SLLWLTCRPWEAM [peptide A5, Ser-Leu-Leu-Trp-Leu-Thr-Cys-Arg-Pro-Trp-Glu-Ala-Met]","EC50, calcium mobilization in indo-1 loaded human neutrophils [4]: ~300 nM; apparent EC50, induction of β-galactosidase activity by synthetic peptide added to yeast strain CY6565 [4]: ~5000 nM; induction of β-galactosidase activity (FUSI-lacZ, yeast) [4]: 7 fold; stimulation over background levels of β-galactosidase (fus1-lacZ, yeast) [4]: 8 fold"
5000 nM,16 nM,CPAAVLWRWVPM [peptide AF-1],
380 nM,650 nM,RFPKNCHLRPPRMILFTALV [peptide AF-3],
